Several values for one entry are separate records, joined by “and”; a condition that tells them apart may be missing. Equal values may be shown once. Read-outs that look alike come from different tables or passages of the source.

The conditions of data set [1]: cited from earlier work.
A further data set deals with T1, amyloid-beta (Abeta) (Homo sapiens, UniProt P05067).
T1 construct: Amyloid Beta (1-40) from Biosource; purchased Biosource
The data set is described as follows: In vitro ligand binding ELISA, immobilized amyloid-beta. Conditions: ligand 5 micrograms per well; fusion protein at increasing dilutions, 37° C. one hour. On the procedure: (§1) For example, the RAGE fusion protein may be used in a binding assay to identify potential RAGE ligands. In one example embodiment of such a binding assay, a known RAGE ligand may coated onto a solid substrate (e.g., Maxisorb plates) at a concentration of about 5 micrograms per well, where each well contains a total volume of about 100 microliters (4). The plates may be incubated at 4° C. overnight to allow the ligand to absorb or bind to the substrate. Alternatively, shorter incubation periods at higher temperature (e.g., room temperature) may be used. […] The RAGE fusion protein bound to the immobilized ligand may be detected in a variety of ways. […] The bound complex may be detected by adding the alkaline phosphatase substrate, para-nitrophenylphosphate (PNPP), and measuring conversion of PNPP to para-nitrophenol (PNP) as an increase in absorbance at 405 nm. […] In the absence of ligand (i.e., coating with only BSA) there was no increase in absorbance. […] Binding was detected by the addition of an immunodetection complex containing a monoclonal mouse anti-human IgG1 diluted 1:11,000 to a final assay concentration (FAC) of 21 ng/100 μL, a biotinylated goat anti-mouse IgG diluted 1:500, to a FAC of […], and an avidin-linked alkaline phosphatase. […]
In general terms: An ELISA detects its analyte on a solid surface through an enzyme-linked reagent.

Another data set deals with T2, S100b (S100) (Homo sapiens, UniProt P04271).
T2 sequence (P04271 1-92): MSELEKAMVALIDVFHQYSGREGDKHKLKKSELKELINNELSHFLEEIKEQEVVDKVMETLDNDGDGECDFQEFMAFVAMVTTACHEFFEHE
Briefly: In vitro ligand binding ELISA, immobilized S100b. The note with it: ligand 5 micrograms per well; fusion protein at increasing dilutions, 37° C. one hour. On the procedure: as §1

The target of a further data set is T3, amphoterin (Ampho) (Homo sapiens, UniProt P09429).
T3 sequence (P09429 1-215): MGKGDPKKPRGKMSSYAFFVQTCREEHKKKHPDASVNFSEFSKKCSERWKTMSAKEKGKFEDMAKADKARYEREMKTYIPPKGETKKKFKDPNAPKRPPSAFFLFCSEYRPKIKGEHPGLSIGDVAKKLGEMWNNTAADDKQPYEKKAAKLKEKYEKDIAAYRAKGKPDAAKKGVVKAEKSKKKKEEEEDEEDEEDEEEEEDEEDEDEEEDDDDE
Briefly: In vitro ligand binding ELISA, immobilized amphoterin. Conditions: ligand 5 micrograms per well; fusion protein at increasing dilutions, 37° C. one hour. As for the experimental part:
as §1

The test system of data set [2] is recurrent diabetes in syngeneic NOD transplant model. Briefly: Syngeneic islet transplantation in NOD mice. The format is in vivo. From the text: Spontaneous autoimmune non-obese diabetic mice (NOD/LtJ) (12-25 weeks old) served as recipients for islet cells, while young pre-diabetic NOD/LtJ mice (6-7 weeks old) served as donors in syngeneic islet transplantation. Islets for transplantation were isolated as described above in Section A (Allogeneic Islet Transplantation). Diabetic NOD/LtJ mice received islet grafts within 2 days of the diagnosis of diabetes. 500-600 freshly isolated islets (approximately 550 islet equivalents) from donor mice were picked up with an infusion set and transplanted into the subcapular space of the right kidney. Test compounds were administered as soon as the islets were transplanted and continued for approximately 8 weeks. […] Islet graft function was monitored by serial blood glucose measurements daily for the first 2 weeks after islet transplantation, followed by every other day thereafter. Reversal of diabetes was defined as blood glucose less than 200 mg/dl on two consecutive measurements. Percentage graft loss was determined when blood glucose exceeded 250 mg/dl on two consecutive measurements.

For data set [3] the following is noted: normal and diabetic rats; cited from earlier work.
Another data set relates to mouse model of AD. The data set is described as follows: APP transgenic mouse model of AD. The format is in vivo, mice. The note with it: treated for 3 months, qod i.p.; versus vehicle and human IgG1. As for the experimental part:
Experiments were performed to evaluate whether TTP-4000 could affect amyloid formation and cognitive dysfunction in a mouse model of AD. The experiments utilized transgenic mice expressing the human Swedish mutant amyloid precursor protein (APP) under the control of the PDGF-B chain promoter. Over time, these mice generate high levels of the RAGE ligand, amyloid beta (Aβ).
The APP mice (male) used in this experiment were designed by microinjection of the human APP gene (with the Swedish and London mutations) into mouse eggs under the control of the platelet-derived growth factor B (PDGF-B) chain gene promoter. The mice were generated on a C57BL/6 background and were developed by Molecular Therapeutics Inc. Animals were fed ad libitum and maintained by brother sister mating. The mice generated from this construct develop amyloid deposits starting at 6 months of age. Animals were aged for 6 months and then maintained for 90 days and sacrificed for amyloid quantification.
APP transgenic mice were administered vehicle or TTP4000 every other day [qod (i.p.)] for 90 days starting at 6 months of age. At the end of the experiment, animals were sacrificed and examined for Aβ plaque burden in the brain (i.e., plaque number). A 6-month control APP group was used to determine the baseline of amyloid deposits. In addition, at the end of the study, the animals were subjected to behavioral (Morris water maze) analysis. The investigators were blinded to the study compounds. Samples were given to the mice at 0.25 ml/mouse/every other day.
For histological examination, the animals were anesthetized with an intraperitoneal injection (IP) of sodium pentobarbital (50 mg/kg). The animals were transcardially perfused with 4° C., phosphate-buffered saline (PBS) followed by 4% paraformaldehyde. The brains were removed and placed in 4% paraformaldehyde over night. The brains were processed to paraffin and embedded. Ten serial 30-μm thick sections through the brain were obtained. Sections were subjected to primary antibody overnight at 4° C. (Aβ peptide antibody) in order to detect the amyloid deposits in the brain of the transgenic animals (Guo et al., J. Neurosci., 22:5900-5909 (2002)). Sections were washed in Tris-buffered saline (TBS) and secondary antibody was added and incubated for 1 hour at room temperature. After washing, the sections were incubated as instructed in the Vector ABC Elite kit (Vector Laboratories) and stained with […] (DAB). The reactions were stopped in water and cover-slipped after treatment with xylene. The amyloid area in each section was determined with a computer-assisted image analysis system, consisting of a Power Macintosh computer equipped with a Quick Capture frame grabber card, Hitachi CCD camera mounted on an Olympus microscope and camera stand. NIH Image Analysis Software, v. 1.55 was used. The images were captured and the total area of amyloid was determined over the ten sections. A single operator blinded to treatment status performed all measurements. Summing the amyloid volumes of the sections and dividing by the total number of sections was done to calculate the amyloid volume.
For quantitative analysis, an enzyme-linked immunosorbent assay (ELISA) was used to measure the levels of human total Aβ, Aβtotal and Aβ1-42 in the brains of APP transgenic mice (Biosource International, Camarillo, Calif.). Aβtotal and Aβ1-42 were extracted from mouse brains by guanidine hydrochloride and quantified as described by the manufacturer. […]

Setting [4] is: 300 ug LD + 100 ug qod ip, syngeneic islets in NOD mice.

T1 sequence (P05067 672-711 limits assumed): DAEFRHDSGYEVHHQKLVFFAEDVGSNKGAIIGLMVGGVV

Consider “human sRAGE: human soluble RAGE (V, C1 and C2 domains)”, for which the half-life entry in data set [1] (assessed by retention of immunoreactivity sRAGE) is “less than 2 hours”. Moreover, in data set [1], the half-life in plasma entry is listed as “about 2 hours”.
As to “sRAGE: soluble RAGE: the RAGE protein that does not include the transmembrane region or the cytoplasmic tail; species not stated at the place [reference compound]”, the half-life in plasma result in data set [1] is reported as “only a few hours”.

B1: TTP-3000: three domain RAGE fusion protein: human RAGE N-terminal sequence (to position 136) linked to human IgG Fc (γ1) without hinge; SEQ ID NO: 35-37, 57 (protein)
chain: QNITARIGEPLVLKCKGAPKKPPQRLEWKLNTGRTEAWKVLSPQGGGPWDSVARVLPNGSLFLPAVGIQDEGIFRCQAMNRNGKETKSNYRVRVYQIPGKPEIVDSASELTAGPSVFLFPPKPKDTLMISRTPEVTCVVVDVSHEDPEVKFNWYVDGVEVHNAKTKPREEQYNSTYRVVSVLTVLHQDWLNGKEYKCKVSNKALPAPIEKTISKAKGQPREPQVYTLPPSRDELTKNQVSLTCLVKGFYPSDIAVEWESNGQPENNYKTTPPVLDSDGSFFLYSKLTVDKSRWQQGNVFSCSVMHEALHNHYTQKSLSLSPGK
modifications: non-natural residues
With B1, in the data set with amyloid-beta (Abeta), the “binding to immobilized amyloid-beta (increase in absorbance at 405 nm)” value was “specifically interact”. The “binding to immobilized S100b (increase in absorbance at 405 nm)” value with S100b (S100) is listed as “specifically interact”. In the data set with amphoterin (Ampho), the “binding to immobilized amphoterin (increase in absorbance at 405 nm)” value is reported as “specifically interact”. For the same molecule, in data set [2] (setting [4]), the “day of graft loss for each animal” value was 42 days and 41 days and 34 days and 32 days and 30 days and 44 days and 46 days; the “day of graft loss, Mean” value stood at 38.43 days. In data set [2] (versus animals not treated at all), the “time before detection of graft failure, in words” value was “increase in the time before detection of graft failure”.

B2: rodent sRAGE: rodent soluble RAGE (protein, UniProt Q62151 23-340, looked up)
extracellular domain: GQNITARIGEPLVLSCKGAPKKPPQQLEWKLNTGRTEAWKVLSPQGGPWDSVARILPNGSLLLPATGIVDEGTFRCRATNRRGKEVKSNYRVRVYQIPGKPEIVDPASELTASVPNKVGTCVSEGSYPAGTLSWHLDGKLLIPDGKETLVKEETRRHPETGLFTLRSELTVIPTQGGTHPTFSCSFSLGLPRRRPLNTAPIQLRVREPGPPEGIQLLVEPEGGIVAPGGTVTLTCAISAQPPPQVHWIKDGAPLPLAPSPVLLLPEVGHEDEGTYSCVATHPSHGPQESPPVSIRVTETGDEGPAEGSVGESGLGTLA
modifications: extracellular domain
notes: rodent soluble RAGE
B2: in data set [3], the half-life result is “approximately 20 hours”.

B3: mouse sRAGE: mouse soluble RAGE used as comparator in the AD mouse model (protein, UniProt Q62151 23-340, looked up)
extracellular domain: GQNITARIGEPLVLSCKGAPKKPPQQLEWKLNTGRTEAWKVLSPQGGPWDSVARILPNGSLLLPATGIVDEGTFRCRATNRRGKEVKSNYRVRVYQIPGKPEIVDPASELTASVPNKVGTCVSEGSYPAGTLSWHLDGKLLIPDGKETLVKEETRRHPETGLFTLRSELTVIPTQGGTHPTFSCSFSLGLPRRRPLNTAPIQLRVREPGPPEGIQLLVEPEGGIVAPGGTVTLTCAISAQPPPQVHWIKDGAPLPLAPSPVLLLPEVGHEDEGTYSCVATHPSHGPQESPPVSIRVTETGDEGPAEGSVGESGLGTLA
modifications: extracellular domain
notes: mouse soluble RAGE used as comparator in the AD mouse model
Turning to B3, in the data set with mouse model of AD, the “Aβ plaques in the brain” value was “fewer Aβ plaques” and the “cognitive dysfunction (Morris water maze)” value is given as “less cognitive dysfunction”.

Source of the values: patent publication US8344120B2, “Nucleic acid molecules encoding rage fusion proteins” (TransTech Pharma, Inc., priority 2006, dated 2013).
